Experimental data taken from PMC314469, “Protein Interaction Networks by Proteome Peptide Scanning” (PLoS Biology, 2004).

T1: Abp1 SH3 (ABP1_YEAST), P15891
T1 chain: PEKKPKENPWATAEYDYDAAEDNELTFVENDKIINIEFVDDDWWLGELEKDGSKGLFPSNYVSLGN


Target: T1, Abp1 SH3 (ABP1_YEAST), P15891
Assay: SPOT array

Binder | normalised SPOT signal, Boehringer light units (BLU); mean over the file's lines of this peptide
LLSKVHDPNIPLRP [YGR184C 639-652] | 135
LLHQYDDPLMFKP [YDL180W 44-56] | 19.6
LKYFGKALENPTRP [YCR012W 192-205] | 117
LKERANKPKRKRP [YFR013W 73-85] | 157
LKLSNISHHSPVKP [YBR050C 283-296] | 103
LLQEDSRIMPPLKP [YBR133C 322-335] | 185
LLEAIDAIEQPSRP [YBR118W 226-239] | 41.3
LKSLNLPQLPPPKP [YDR266C 568-581] | 40.9
LLRRNPSPSIVKP [YFL021W 256-268] | 1070

Next, values leading:

normalised SPOT signal, Boehringer light units (BLU); mean over the file's lines of this peptide | Binder
140 | LLQQQRVDVVPPKP [YML113W 123-136]
81.6 | LIPELPSPKDLRP [YMR049C 412-424]
7.9 | LKPENILLSAPDKP [YJL141C 497-510]
111 | LLPPPPPPPYQRP [YPL063W 179-191]
74.2 | LIPVQELPLLLKP [YML010W 362-374]
54.3 | LLKKGVNPKAKRP [YNL061W 602-614]
323 | LKSFFTNPNKKRP [YOR098C 23-35]
748 | LITRLRVPTIKRP [YOR147W 33-45]
163 | LKKTLKKKKTPKKP [YKR084C 74-87]
177 | LLRENTTILDPSKP [YKR056W 387-400]
40.8 | LKKSGKLPTWVKP [YLR193C 56-68]
249 | LLRLRPRPLLLRP [YKR047W 79-91]
1030 | LISKWTIMPHPNRP [YOL008W 135-148]
188 | LMMPVMVPTVYKP [YPR013C 154-166]
